The source of these data is patent publication US20120023600A1 (Novartis, published 2012).

Assay [1] deals with T1, carboxyl terminal truncated DKK1 (deltaC, residues 1-185) with C-terminal HA epitope (Homo sapiens (Human), UniProt O94907 32-185).
T1 construct: Secreted into conditioned medium of transfected Hek293 cells; Contains Cys-1 but not Cys-2
T1 sequence: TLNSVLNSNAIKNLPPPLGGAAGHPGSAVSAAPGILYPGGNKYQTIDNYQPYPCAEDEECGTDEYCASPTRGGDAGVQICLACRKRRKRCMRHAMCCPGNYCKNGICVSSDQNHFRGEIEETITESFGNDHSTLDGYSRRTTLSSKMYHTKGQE
The assay can be described thus: immunoprecipitation from conditioned medium of transfected Hek293 cells, protein G beads, SDS-PAGE, anti-HA blot [panel B.]. The text has this:
Full-length (FL, containing residues 1-266), carboxyl terminal truncated (ΔC, containing residues 1-185), and amino terminal truncated (ΔN, containing residues 1-60 plus residues 157-266), are fused with an HA epitope at their C termini, and Cloned into a mammalian expression vector under the control of the cytomegalovirus (CMV) promoter. […] 1/10 of total input is loaded as control.

Assay [2] deals with T2, cynomolgus DKK1 (cynomolgus monkey (Macaca fascicularis), UniProt A0A7N9IE82 32-266).
T2 sequence: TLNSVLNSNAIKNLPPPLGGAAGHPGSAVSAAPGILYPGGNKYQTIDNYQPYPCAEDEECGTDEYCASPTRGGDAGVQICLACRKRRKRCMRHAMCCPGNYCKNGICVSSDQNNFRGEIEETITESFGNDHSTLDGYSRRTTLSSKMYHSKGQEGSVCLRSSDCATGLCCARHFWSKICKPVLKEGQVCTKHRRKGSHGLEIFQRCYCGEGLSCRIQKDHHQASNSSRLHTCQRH
The assay can be described thus: cell-based or functional assay.

Assay [3] concerns the target T3, recombinant human DKK1 (human, UniProt O94907 32-266).
T3 sequence: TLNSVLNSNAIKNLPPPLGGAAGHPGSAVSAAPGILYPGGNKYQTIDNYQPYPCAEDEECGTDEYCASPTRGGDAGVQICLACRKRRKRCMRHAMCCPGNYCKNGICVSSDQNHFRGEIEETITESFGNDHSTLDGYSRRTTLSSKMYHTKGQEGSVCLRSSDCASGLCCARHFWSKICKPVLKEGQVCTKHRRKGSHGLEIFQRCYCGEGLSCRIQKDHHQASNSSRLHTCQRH
Description: cell-based or functional assay.

Assay [4] concerns the target T4, mouse DKK1 (R&D Systems) (mouse, UniProt O54908 32-272).
T4 sequence (looked up): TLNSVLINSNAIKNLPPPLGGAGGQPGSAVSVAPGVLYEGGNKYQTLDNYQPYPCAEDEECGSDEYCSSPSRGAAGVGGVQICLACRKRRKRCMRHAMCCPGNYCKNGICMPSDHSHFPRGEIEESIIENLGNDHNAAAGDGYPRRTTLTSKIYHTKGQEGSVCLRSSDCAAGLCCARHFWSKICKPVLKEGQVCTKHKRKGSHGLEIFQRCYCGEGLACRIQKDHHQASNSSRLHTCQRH
Description: cell-based or functional assay.

In assay [5] the target is T5, rat DKK1 (Novartis) (rat, UniProt A6I0Z0 32-270).
T5 sequence: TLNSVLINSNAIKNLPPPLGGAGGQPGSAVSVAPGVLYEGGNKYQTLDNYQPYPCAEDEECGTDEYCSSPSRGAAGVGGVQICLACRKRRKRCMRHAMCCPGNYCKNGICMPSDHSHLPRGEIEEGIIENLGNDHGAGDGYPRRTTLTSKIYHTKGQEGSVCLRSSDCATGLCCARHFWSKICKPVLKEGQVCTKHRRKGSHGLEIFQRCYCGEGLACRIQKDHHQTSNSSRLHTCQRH
Description: cell-based or functional assay.

For assay [6], the target named is human DKK3 (human, UniProt Q9UBP4 22-350). The assay can be described thus: SPR (Biacore T100); NSB = No Significant binding, not detectable above background. Background: Surface plasmon resonance follows binding to a sensor surface in real time, without labels.
Chain of human DKK3 (Q9UBP4 other isoform, or with tags, fused parts or gaps limits assumed): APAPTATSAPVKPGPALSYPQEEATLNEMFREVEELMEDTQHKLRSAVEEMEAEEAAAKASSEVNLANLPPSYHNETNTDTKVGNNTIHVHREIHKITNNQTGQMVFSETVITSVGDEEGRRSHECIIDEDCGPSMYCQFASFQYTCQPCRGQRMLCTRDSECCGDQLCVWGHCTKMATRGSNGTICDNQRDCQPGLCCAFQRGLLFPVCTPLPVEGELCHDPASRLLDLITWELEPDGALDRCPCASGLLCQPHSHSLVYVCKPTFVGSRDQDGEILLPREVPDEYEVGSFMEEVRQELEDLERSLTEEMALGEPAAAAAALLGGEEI
For assay [7], the target named is T6, human DKK2 (human, UniProt Q9UBU2 34-259).
T6 construct: tested by immunoprecipitation
T6 sequence: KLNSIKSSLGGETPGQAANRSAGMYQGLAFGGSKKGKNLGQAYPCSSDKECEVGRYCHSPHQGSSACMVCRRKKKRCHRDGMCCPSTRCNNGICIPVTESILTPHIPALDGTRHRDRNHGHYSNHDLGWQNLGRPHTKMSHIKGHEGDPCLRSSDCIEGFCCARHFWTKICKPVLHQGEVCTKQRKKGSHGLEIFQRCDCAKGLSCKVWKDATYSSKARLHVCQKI
The assay can be described thus: immunoprecipitation.

The target of assay [8] is T7, wild type (WT) rhDKK1 (HEK HIS epitope tagged Batch# BTP7757) (human, UniProt O94907 32-266, N-glycosylated (one theoretical N-linked site at amino acid 256)).
T7 construct: Made in HEK cells; also called WT DKK1; rhDKK1 (recombinant human DKK1) (Batch BTP7757)
T7 sequence: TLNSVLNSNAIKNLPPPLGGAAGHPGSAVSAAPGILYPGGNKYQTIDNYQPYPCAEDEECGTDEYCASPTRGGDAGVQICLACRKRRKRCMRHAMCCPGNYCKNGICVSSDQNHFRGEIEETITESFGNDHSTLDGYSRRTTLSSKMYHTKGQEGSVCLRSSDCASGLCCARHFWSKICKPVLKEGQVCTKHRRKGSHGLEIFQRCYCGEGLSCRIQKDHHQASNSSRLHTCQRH
Description: SPR, Biacore T100, CM5 chip; antibody captured on immobilised anti-human IgG1 Fc, rhDKK1 0.195-6.25 nM as analyte; 1:1 binding with mass transport; mean of three experiments with standard deviation [6B]. The method, then: (§1) FIG. 6. […] Anti-Human IgG1 Fc (Jackson Immuno Research, Cat#109-006-098) is immobilized onto each flow cell, followed by capture of a lead candidate at an expected capture of about 100 RU. […] The normalized data (background subtracted) are fit to a 1:1 binding with mass transport model using Kinetics analysis in BIA evaluation 1.0 software. This experiment is carried out in triplicate, and data presented are the average of these three experiments with standard deviation.

For assay [9], the target named is T7, wild type (WT) rhDKK1 (HEK HIS epitope …). The assay can be described thus: SPR (Biacore T100), antibody captured by anti-human IgG1 Fc, DKK in flow; average of three experiments. The protocol: as §1
In assay [10] the target is T8, human DKK4 (human, UniProt Q9UBT3 19-224).
T8 construct: also called Dickkopf-4
T8 sequence: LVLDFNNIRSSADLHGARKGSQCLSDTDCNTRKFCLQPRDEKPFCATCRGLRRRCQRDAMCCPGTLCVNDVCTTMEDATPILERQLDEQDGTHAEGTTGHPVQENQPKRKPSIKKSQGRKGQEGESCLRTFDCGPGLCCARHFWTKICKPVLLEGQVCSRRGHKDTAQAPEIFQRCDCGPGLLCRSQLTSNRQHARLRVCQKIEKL
Described as above. The protocol: as §1

Assay [11] addresses T7, wild type (WT) rhDKK1 (HEK HIS epitope …). The assay can be described thus: SPR (Biacore T100).
Assay [12] has as its target T9, N-linked deglycosylated rhDKK1 (human, UniProt O94907 32-266, N-linked glycan removed with the enzyme PNGase F).
T9 construct: Same HIS-tagged HEK protein as WT rhDKK1 (Batch BTP7757) after PNGase F treatment; also called N-DEGLY DKK1; DKK1 (N-degly)
T9 sequence: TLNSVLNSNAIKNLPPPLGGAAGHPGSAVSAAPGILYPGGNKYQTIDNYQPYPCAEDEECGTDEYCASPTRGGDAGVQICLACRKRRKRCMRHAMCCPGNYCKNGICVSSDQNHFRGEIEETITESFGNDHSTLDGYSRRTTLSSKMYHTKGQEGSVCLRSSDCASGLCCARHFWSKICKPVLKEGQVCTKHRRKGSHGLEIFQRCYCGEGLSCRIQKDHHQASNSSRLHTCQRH
The assay can be described thus: SPR (Biacore T100).

In assay [13] the target is T8, human DKK4. Description: SPR (Biacore T100).
The target of assay [14] is T9, N-linked deglycosylated rhDKK1. Description: SPR (Biacore T100). This is another data set of the same source.
For assay [15], the target named is T3, recombinant human DKK1. Description: cell-based or functional assay. The source holds these as a separate data set.

B1: anti-DKK1/4 antibody (antibody, V domains shown)
VH: QVQLVESGGGLVQPGGSLRLSCAASGFTFSSYWMSWVRQAPGKGLEWVSGISYSGSNTHYADSVKGRFTISRDNSKNTLYLQMNSLRAEDTAVYYCARMGIDLDYWGQGTLVTVSS
VL: DIALTQPASVSGSPGQSITISCTGTSSDVGGFNYVSWYQQHPGKAPKLMIHDGSNRPSGVSNRFSGSKSGNTASLTISGLQAEDEADYYCQSWDVSPITAVFGGGTKLTVLG
notes: also called neutralizing anti-DKK1/4 antibody; NVP-anti-DKK1/4 antibody-NX
On to B1, for which the binding result in assay [1], in [6] and in [7] was “no binding” in each case. In addition, the “Reactivation of wnt3a signaling (TOPFlash) EC50 (pM)” value was 54.2 pM in assay [2], 80.6 pM in [3], 60.5 pM in assay [4] and 255 pM in [5]. Besides, the values for the koff in [8], in [11] and in assay [12] were 9e-06 s⁻¹, 2.32e-05 s⁻¹ and 0.000307 s⁻¹, respectively. For the same molecule, the kon (as a rule, a measure of how fast the partners come together) was found to be 4.6e+06 M⁻¹ s⁻¹ in assay [8], 7.45e+06 M⁻¹ s⁻¹ in [11] and 1.42e+06 M⁻¹ s⁻¹ in assay [12]. Besides, the Kd (commonly the free concentration of one partner at which half of the binding sites on the other are occupied at equilibrium, for simple one-to-one binding) in assay [9] came to 0.002 nM; in assay [10], 0.297 nM; in assay [11], 0.00311 nM; in assay [12], 0.216 nM. In addition, the “fold lower affinity than for DKK1” value in assay [13] was approximately 100 fold. Besides, the “fold lower affinity than for WT DKK1” value in assay [14] stood at 100 fold. For the same molecule, in assay [15], the “apparent EC50, TCF/LEF luciferase reporter (SuperTopflash, Kremen) assay” value was 0.16 nM.
